One block for each compound: values may come before it.
Experiments:
[1] = molecular target: T1, VhChiP (OM-expressed, native) (Vibrio harveyi, UniProt L0RVU0); assay: single-channel electrophysiology, planar lipid bilayer, ion current block titration; assay type: binding; settings: 1 M KCl, 20 mM HEPES pH 7.5, 25 °C, -100 mV, sugar on cis side; range printed jointly for both full-length channels
T1 construct: gene chiP; full-length mature protein after signal peptide processing, no His-tag, pET23d(+), expressed in outer membrane of E. coli BL21(DE3) omp8 rosetta, homotrimer
T1 sequence (L0RVU0 26-375): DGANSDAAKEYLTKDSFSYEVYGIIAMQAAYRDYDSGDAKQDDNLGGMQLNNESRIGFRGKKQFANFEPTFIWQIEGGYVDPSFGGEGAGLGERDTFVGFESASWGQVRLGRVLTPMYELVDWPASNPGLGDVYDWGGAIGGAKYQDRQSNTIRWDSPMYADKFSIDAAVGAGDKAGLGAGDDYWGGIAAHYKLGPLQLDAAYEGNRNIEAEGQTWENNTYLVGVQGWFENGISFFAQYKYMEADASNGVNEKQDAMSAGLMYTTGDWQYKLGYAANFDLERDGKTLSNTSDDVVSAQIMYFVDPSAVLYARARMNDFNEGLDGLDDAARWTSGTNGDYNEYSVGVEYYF

[2] = molecular target: T1, VhChiP (OM-expressed, native); assay: X-ray crystal structure of co-crystals; assay type: binding; settings: 10 mM GlcNAc4, 0.1 M MES pH 6.5, 28% PEG 400
[3] = molecular target: OM-expressed VhChiP (chitoporin from Vibrio harveyi) (Vibrio harveyi); assay: SDS-PAGE of non-boiled and boiled samples; purified protein loaded non-boiled and boiled; heat-modifiable mobility
[4] = molecular target: OM-expressed VhChiP (chitoporin from Vibrio harveyi) (Vibrio harveyi); assay: crystal structure; OM-expressed VhChiP, 10 mg/mL, 0.4% C8E4; space group C2: 28% PEG 400, 0.2 M sodium acetate, 0.1 M MES pH 6.5
[5] = molecular target: in vitro-folded VhChiP (Vibrio harveyi); assay: SDS-PAGE of non-boiled and boiled samples; purified protein loaded non-boiled and boiled; heat-modifiable mobility
[6] = molecular target: in vitro-folded VhChiP (Vibrio harveyi); assay: crystal structure; in vitro-folded SeMet VhChiP, ~12 mg/mL, 0.4% C8E4; crystal form I P2_(1): 30% PEG 400, 0.05 M NaCl, 0.1 M sodium citrate pH 5.5; crystal form II: 28% PEG 400, 0.5 M potassium iodide, 0.1 M Tris pH 8.5

Compound: CC(=O)N[C@H]1[C@H](O[C@H]2[C@H](O)[C@@H](NC(C)=O)[C@H](O[C@H]3[C@H](O)[C@@H](NC(C)=O)C(O)O[C@@H]3CO)O[C@@H]2CO)O[C@H](CO)[C@@H](O[C@@H]2O[C@H](CO)[C@@H](O[C@@H]3O[C@H](CO)[C@@H](O[C@@H]4O[C@H](CO)[C@@H](O)[C@H](O)[C@H]4NC(C)=O)[C@H](O)[C@H]3NC(C)=O)[C@H](O)[C@H]2NC(C)=O)[C@@H]1O (stereo partly drawn) [chitohexaose]
K [1]: 2–5 × 10^5

Compound: CC(=O)N[C@H]1[C@H](O[C@H]2[C@H](O)[C@@H](NC(C)=O)C(O)O[C@@H]2CO)O[C@H](CO)[C@@H](O[C@@H]2O[C@H](CO)[C@@H](O[C@@H]3O[C@H](CO)[C@@H](O)[C@H](O)[C@H]3NC(C)=O)[C@H](O)[C@H]2NC(C)=O)[C@@H]1O (stereo partly drawn) [chitotetraose]
X-ray crystal structure of co-crystals [2]: we co-crystallized OM-expressed VhChiP with chitotetraose (GlcNAc4)

stoichiometry N [3]: 3
stoichiometry N [4]: 3
Compound: OM-expressed VhChiP (chitoporin from Vibrio harveyi) (natural protein)

stoichiometry N [5]: 3
stoichiometry N [6]: 3
Compound: in vitro-folded VhChiP (natural protein)
